# Experimental data published in article PMC4635490, “VP22 core domain from Herpes simplex virus 1 reveals a surprising structural conservation in both the Alpha- and Gammaherpesvirinae subfamilies” (The Journal of General Virology, 2015).
# Target: the molecule itself
# Assay: SEC-MALS; Superdex 200 5/150 GL, 20 mM HEPES pH 7.5, 300 mM NaCl, 10 % glycerol, 2 mM TCEP; 20 µl of 6 mg/ml VP22core injected, 0.3 ml/min
protein,measurement,value
"VP22 core domain (conserved C-terminal domain) from Herpes simplex virus 1, residues 174-281 (domain or fragment, VP22 tegument protein of Herpes simplex virus 1 (Human herpesvirus 1), GenBank BAE87004.1, residues 174-281; electron density seen for residues 174-260 plus three amino acids of the N-terminal tag; The tag was not removed: the monomer mass of 14 551 g/mol includes the purification tag and the TEV site; source: bacterial cells, purified (HisTrap HP, Superdex 75 size exclusion); not shown: His6, …) RKLHFSTAPPNPDAPWTPRVAGFNKRVFCAAVGRLAAMHARMAAVQLWDMSRPRTDEDLNELLGITTIRVTVCEGKNLLQRANELVNPDVVQDVDAATATRGRSAASR",stoichiometry N,2
